Results: paper PMC12027964, “Centrifugation-Based Purification Protocol Optimization Enhances Structural Preservation of Nucleopolyhedrovirus Budded Virion Envelopes” (Insects, 2025)

Molecular target: the molecule itself
Test: cryo-EM structure; GP64 solubilised from purified BV particles with DDM/CHS, SEC fraction B in TN buffer (50 mM Tris-HCl pH 8, 150 mM NaCl) with 0.02% DDM and 0.002% CHS, about 1 mg/mL; single-particle reconstruction (7913 particles, 15 Å); prefusion GP64 model PDB 8YG6 fitted into the map

B1: GP64 envelope fusion protein of Autographa californica multiple nucleopolyhedrovirus (AcMNPV) (natural protein)
chain: AEHCNAQMKTGPYKIKNLDITPPKETLQKDVEITIVETDYNENVIIGYKGYYQAYAYNGGSLDPNTRVEETMKTLNVGKEDLLMWSIRQQCEVGEELIDRWGSDSDDCFRDNEGRGQWVKGKELVKRQNNNHFAHHTCNKSWRCGISTSKMYSRLECQDDTDECQVYILDAEGNPINVTVDTVLHRDGVSMILKQKSTFTTRQIKAACLLIKDDKNNPESVTREHCLIDNDIYDLSKNTWNCKFNRCIKRKVEHRVKKRPPTWRHNVRAKYTEGDTATKGDLMHIQEELMYENDLLKMNIELMHAHINKLNNMLHDLIVSVAKVDERLIGNLMNNSVSSTFLSDDTFLLMPCTNPPAHTSNCYNNSIYKEGRWVANTDSSQCIDFSNYKELAIDDDVEFWIPTIGNTTYHDSWKDASGWSFIAQQKSNLITTMENTKFGGVGTSLSDITSMAEGELAAKLTSFMFGHVVNFVIILIVILFLYCMIRNRNRQY
notes: Native viral protein, no tag; also called prefusion GP64; Frac B; source: purified from recombinant AcMNPV budded virions produced in Sf9 cells (1% DDM / 0.1% CHS extraction, Superdex 200 SEC)
stoichiometry N: 3
